From the supplement of paper PMC11246515
± gives the standard deviation of the averaged measurements.

Test: total protein half-life in vivo (active degradation + dilution); higher = more stable protein
[1] = E. coli NCM3722 delta-clpP delta-lon delta-hslV, growth: N-lim chemostat, doubling time 6 h
[2] = E. coli NCM3722 delta-clpP, growth: N-lim chemostat, doubling time 6 h
[3] = E. coli NCM3722 delta-hslV, growth: N-lim chemostat, doubling time 6 h
[4] = E. coli NCM3722 delta-lon, growth: N-lim chemostat, doubling time 6 h
[5] = E. coli NCM3722 delta-smpB, growth: N-lim chemostat, doubling time 6 h
[6] = wild type E. coli NCM3722, growth: C-lim chemostat, doubling time 3 h
[7] = wild type E. coli NCM3722, growth: C-lim chemostat, doubling time 6 h
[8] = wild type E. coli NCM3722, growth: C-lim chemostat, doubling time 12 h
[9] = wild type E. coli NCM3722, growth: N-lim chemostat, doubling time 6 h
[10] = wild type E. coli NCM3722, growth: N-lim chemostat, doubling time 12 h
[11] = wild type E. coli NCM3722, growth: P-lim chemostat, doubling time 6 h
[12] = wild type E. coli NCM3722, growth: P-lim chemostat, doubling time 12 h

Sequence	total protein half-life in vivo [1] [h]	total protein half-life in vivo [2] [h]	total protein half-life in vivo [3] [h]	total protein half-life in vivo [4] [h]	total protein half-life in vivo [5] [h]	total protein half-life in vivo [6] [h]	total protein half-life in vivo [7] [h]	total protein half-life in vivo [8] [h]	total protein half-life in vivo [9] [h]	total protein half-life in vivo [10] [h]	total protein half-life in vivo [11] [h]	total protein half-life in vivo [12] [h]
MFQDNPLLAQLKQQLHSQTPRAEGVVKATEKGFGFLEVDAQKSYFIPPPQMKKVMHGDRIIAVIHSEKERESAEPEELVEPFLTRFVGKVQGKNDRLAIVPDHPLLKDAIPCRAARGLNHEFKEGDWAVAEMRRHPLKGDRSFYAELTQYITFGDDHFVPWWVTLARHNLEKEAPDGVATEMLDEGLVREDLTALDFVTIDSASTEDMDDALFAKALPDDKLQLIVAIADPTAWIAEGSKLDKAAKIRAFTNYLPGFNIPMLPRELSDDLCSLRANEVRPVLACRMTLSADGTIEDNIEFFAATIESKAKLVYDQVSDWLENTGDWQPESEAIAEQVRLLAQICQRRGEWRHNHALVFKDRPDYRFILGEKGEVLDIVAEPRRIANRIVEEAMIAANICAARVLRDKLGFGIYNVHMGFDPANADALAALLKTHGLHVDAEEVLTLDGFCKLRRELDAQPTGFLDSRIRRFQSFAEISTEPGPHFGLGLEAYATWTSPIRKYGDMINHRLLKAVIKGETATRPQDEITVQMAERRRLNRMAERDVGDWLYARFLKDKAGTDTRFAAEIVDISRGGMRVRLVDNGAIAFIPAPFLHAVRDELVCSQENGTVQIKGETVYKVTDVIDVTIAEVRMETRSIIARPVA	6.36 ± 1.1	5.31 ± 0.54	4.41 ± 0.31	4.57 ± 0.42	3.92 ± 0.095	2.74 ± 0.38	5.8 ± 0.41	10 ± 3.6	4.3 ± 0.15	7.65 ± 0.77	4.66 ± 0.14	8.07 ± 0.19
MSRTTTVDGAPASDTDKQSISQPNQFIKRGTPQFMRVTLALFSAGLATFALLYCVQPILPVLSQEFGLTPANSSISLSISTAMLAIGLLFTGPLSDAIGRKPVMVTALLLASICTLLSTMMTSWHGILIMRALIGLSLSGVAAVGMTYLSEEIHPSFVAFSMGLYISGNSIGGMSGRLISGVFTDFFNWRIALAAIGCFALASALMFWKILPESRHFRPTSLRPKTLFINFRLHWRDRGLPLLFAEGFLLMGSFVTLFNYIGYRLMLSPWHVSQAVVGLLSLAYLTGTWSSPKAGTMTTRYGRGPVMLFSTGVMLFGLLMTLFSSLWLIFAGMLLFSAGFFAAHSVASSWIGPRAKRAKGQASSLYLFSYYLGSSIAGTLGGVFWHNYGWNGVGAFIALMLVIALLVGTRLHRRLHA	1.3	1.36 ± 0.35	1.46 ± 0.017	1.1 ± 0.07	2.24 ± 0.1				1.42 ± 0.079	2.65 ± 0.55		2.5
MNQRNASMTVIGAGSYGTALAITLARNGHEVVLWGHDPEHIATLERDRCNAAFLPDVPFPDTLHLESDLATALAASRNILVVVPSHVFGEVLRQIKPLMRPDARLVWATKGLEAETGRLLQDVAREALGDQIPLAVISGPTFAKELAAGLPTAISLASTDQTFADDLQQLLHCGKSFRVYSNPDFIGVQLGGAVKNVIAIGAGMSDGIGFGANARTALITRGLAEMSRLGAALGADPATFMGMAGLGDLVLTCTDNQSRNRRFGMMLGQGMDVQSAQEKIGQVVEGYRNTKEVRELAHRFGVEMPITEEIYQVLYCGKNAREAALTLLGRARKDERSSH [P0A6S7]	5.183 ± 0.013	5.35 ± 0.8	4.8 ± 0.097	4.88 ± 0.27	4.73 ± 0.34	3.3022 ± 0.00023	5.8 ± 0.063	10.8 ± 1.8	4.99 ± 0.28	8.16	5.73 ± 0.15	12.7 ± 2.1
MRVSRSLTIKQMAMVAAVVLVFVFIFCTVLLFHLVQQNRYNTATQLESIARSVREPLSSAILKGDIPEAEAILASIKPAGVVSRADVVLPNQFQALRKSFIPERPVPVMVTRLFELPVQISLGVYSLERPANPQPIAYLVLQADSFRMYKFVMSTLSTLVTIYLLLSLILTVAISWCINRLILHPLRNIARELNAIPAKELVGHQLALPRLHQDDEIGMLVRSYNLNQQLLQRHYEEQNENAMRFPVSDLPNKALLMEMLEQVVARKQTTALMIITCETLRDTAGVLKEAQREILLLTLVEKLKSVLSPRMILAQISGYDFAVIANGVQEPWHAITLGQQVLTIMSERLPIERIQLRPHCSIGVAMFYGDLTAEQLYSRAISAAFTARHKGKNQIQFFDPQQMEAAQKRLTEESDILNALENHQFAIWLQPQVEMTSGKLVSAEVLLRIQQPDGSWDLPDGLIDRIECCGLMVTVGHWVLEESCRLLAAWQERGIMLPLSVNLSALQLMHPNMVADMLELLTRYRIQPGTLILEVTESRRIDDPHAAVAILRPLRNAGVRVALDDFGMGYAGLRQLQHMKSLPIDVLKIDKMFVEGLPGDSSMIAAIIMLAQSLNLQMIAEGVETEAQRDWLAKAGVGIAQGFLFARPLPIEIFEESYLEEK	6.54 ± 0.19	6.31 ± 0.11	6.2 ± 0.23	5.77 ± 0.32	6.1 ± 0.082	2.998 ± 0.0049	5.7 ± 1.1	13 ± 0.22	6.054 ± 0.008	12.3 ± 0.63	6.161 ± 0.035	12.5 ± 0.55
MTQENEIKRPIQDLEHEPIKPLDNSEKGSKVSQALETVTTTAEKVQRQPVIAHLIRATERFNDRLGNQFGAAITYFSFLSMIPILMVSFAAGGFVLASHPMLLQDIFDKILQNISDPTLAATLKNTINTAVQQRTTVGLVGLAVALYSGINWMGNLREAIRAQSRDVWERSPQDQEKFWVKYLRDFISLIGLLIALIVTLSITSVAGSAQQMIISALHLNSIEWLKPTWRLIGLAISIFANYLLFFWIFWRLPRHRPRKKALIRGTFLAAIGFEVIKIVMTYTLPSLMKSPSGAAFGSVLGLMAFFYFFARLTLFCAAWIATAEYKDDPRMPGKTQP	4.96 ± 0.058	4.8 ± 0.18	3.99 ± 0.46	3.56 ± 0.56	4.74 ± 0.46	2.41 ± 0.45	4.07 ± 0.12	7.18 ± 1.4	4.21 ± 0.15	6.7 ± 0.46	4.02 ± 0.11	6.92 ± 0.24
MGQVLPLVTRQGDRIAIVSGLRTPFARQATAFHGIPAVDLGKMVVGELLARSEIPAEVIEQLVFGQVVQMPEAPNIAREIVLGTGMNVHTDAYSVSRACATSFQAVANVAESLMAGTIRAGIAGGADSSSVLPIGVSKKLARVLVDVNKARTMSQRLKLFSRLRLRDLMPVPPAVAEYSTGLRMGDTAEQMAKTYGITREQQDALAHRSHQRAAQAWSDGKLKEEVMTAFIPPYKQPLVEDNNIRGNSSLADYAKLRPAFDRKHGTVTAANSTPLTDGAAAVILMTESRAKELGLVPLGYLRSYAFTAIDVWQDMLLGPAWSTPLALERAGLTMSDLTLIDMHEAFAAQTLANIQLLGSERFAREALGRAHATGEVDDSKFNVLGGSIAYGHPFAATGARMITQTLHELRRRGGGFGLVTACAAGGLGAAMVLEAE		5.81 ± 0.29	5.7 ± 0.78	6.04 ± 0.061	5.43 ± 0.24	2.94 ± 0.14	6.16 ± 0.1	12.3 ± 1.9	6.23 ± 0.13	12 ± 0.41	6.44 ± 0.075	
MSIKEQTLMTPYLQFDRNQWAALRDSVPMTLSEDEIARLKGINEDLSLEEVAEIYLPLSRLLNFYISSNLRRQAVLEQFLGTNGQRIPYIISIAGSVAVGKSTTARVLQALLSRWPEHRRVELITTDGFLHPNQVLKERGLMKKKGFPESYDMHRLVKFVSDLKSGVPNVTAPVYSHLIYDVIPDGDKTVVQPDILILEGLNVLQSGMDYPHDPHHVFVSDFVDFSIYVDAPEDLLQTWYINRFLKFREGAFTDPDSYFHNYAKLTKEEAIKTAMTLWKEINWLNLKQNILPTRERASLILTKSANHAVEEVRLRK [P0A6I3]	4.81 ± 0.35	5.07 ± 0.72	4.053 ± 0.029	4.54 ± 0.22	4.28 ± 0.39	3.07 ± 0.17	5.71 ± 0.51	8.55 ± 0.56	4.41 ± 0.7	7.123 ± 0.068	5.6077 ± 0.0014	12.5 ± 0.64
MRFSRFIIGLTSCIAFSVQAANVDEYITQLPAGANLALMVQKVGASAPAIDYHSQQMALPASTQKVITALAALIQLGPDFRFTTTLETKGNVENGVLKGDLVARFGADPTLKRQDIRNMVATLKKSGVNQIDGNVLIDTSIFASHDKAPGWPWNDMTQCFSAPPAAAIVDRNCFSVSLYSAPKPGDMAFIRVASYYPVTMFSQVRTLPRGSAEAQYCELDVVPGDLNRFTLTGCLPQRSEPLPLAFAVQDGASYAGAILKDELKQAGITWSGTLLRQTQVNEPGTVVASKQSAPLHDLLKIMLKKSDNMIADTVFRMIGHARFNVPGTWRAGSDAVRQILRQQAGVDIGNTIIADGSGLSRHNLIAPATMMQVLQYIAQHDNELNFISMLPLAGYDGSLQYRAGLHQAGVDGKVSAKTGSLQGVYNLAGFITTASGQRMAFVQYLSGYAVEPADQRNRRIPLVRFESRLYKDIYQNN	6.48 ± 0.36	6.25 ± 0.35	6.87 ± 0.72	6.194 ± 0.044	6.051 ± 0.02	3.24 ± 0.54	6.21 ± 0.86	12.7 ± 0.72	6.15 ± 0.52	13.4 ± 0.64	6.25 ± 0.55	12.6 ± 0.42
MVLGKPQTDPTLEWFLSHCHIHKYPSKSTLIHQGEKAETLYYIVKGSVAVLIKDEEGKEMILSYLNQGDFIGELGLFEEGQERSAWVRAKTACEVAEISYKKFRQLIQVNPDILMRLSAQMARRLQVTSEKVGNLAFLDVTGRIAQTLLNLAKQPDAMTHPDGMQIKITRQEIGQIVGCSRETVGRILKMLEDQNLISAHGKTIVVYGTR [P0ACJ8]	5.31 ± 0.51	5.17 ± 0.55	4.68 ± 0.23	4.86 ± 0.09	4.55 ± 0.33	2.92 ± 0.22	5.84 ± 0.064	10 ± 0.63	4.582 ± 0.038	7.59 ± 0.18	5.09 ± 0.27	9.72 ± 0.62
MQILKVIGLLMEYPDELLWECKEDALALIRRDAPMLTDFTHNLLNAPLLDKQAEWCEVFDRGRTTSLLLFEHVHAESRDRGQAMVDLLAEYEKVGLQLDCRELPDYLPLYLEYLSVLPDDQAKEGLLNVAPILALLGGRLKQREAPWYALFDALLQLAGSSLSSDSVTKQVNSEERDDTRQALDAVWEEEQVKFIEDNATACDSSPLNQYQRRFSQDVAPQYVDISAGGGK	3.93 ± 0.43	1.45	0.577	0.917	0.553		1.45 ± 0.12	1.78	0.752 ± 0.1	0.75		1.94 ± 0.61
MDKLLERFLNYVSLDTQSKAGVRQVPSTEGQWKLLHLLKEQLEEMGLINVTLSEKGTLMATLPANVPGDIPAIGFISHVDTSPDCSGKNVNPQIVENYRGGDIALGIGDEVLSPVMFPVLHQLLGQTLITTDGKTLLGADDKAGIAEIMTALAVLQQKKIPHGDIRVAFTPDEEVGKGAKHFDVDAFDARWAYTVDGGGVGELEFENFNAASVNIKIVGNNVHPGTAKGVMVNALSLAARIHAEVPADESPEMTEGYEGFYHLASMKGTVERADMHYIIRDFDRKQFEARKRKMMEIAKKVGKGLHPDCYIELVIEDSYYNMREKVVEHPHILDIAQQAMRDCDIEPELKPIRGGTDGAQLSFMGLPCPNLFTGGYNYHGKHEFVTLEGMEKAVQVIVRIAELTAQRK	4.47 ± 0.093	4.26 ± 0.49	3.88 ± 0.14	4.53 ± 0.13	4.04 ± 0.089	3.079 ± 0.019	6.32 ± 1.1	9.74 ± 0.59	3.97 ± 0.13	5.85 ± 0.25	5.38 ± 0.2	10.3 ± 0.14
MMKKFIAPLLALLVSGCQIDPYTHAPTLTSTDWYDVGMEDAISGSAIKDDDAFSDSQADRGLYLKGYAEGQKKTCQTDFTYARGLSGKSFPASCNNVENASQLHEVWQKGADENASTIRLN	3.02 ± 0.51	3.75 ± 0.11	4.8		3.95 ± 0.7	1.57	5.17 ± 0.12	8.56 ± 0.22	3.97	6.57 ± 0.068	4.95	10.9
MTSLVVPGLDTLRQWLDDLGMSFFECDNCQALHLPHMQNFDGVFDAKIDLIDNTILFSAMAEVRPSAVLPLAADLSAINASSLTVKAFLDMQDDNLPKLVVCQSLSVMQGVTYEQFAWFVRQSEEQISMVILEANAHQLLLPTDDEGQNNVTENYFLH [P0AAY6]	2.64 ± 2.3		2.7	4.39	1.74 ± 1.4			1.21	0.868			
